Publication PMC3382604

Experiments:
[1] = biological target: Dihydrodipicolinate synthase from Bacillus anthracis (Bacillus anthracis); assay: SAXS
[2] = biological target: Dihydrodipicolinate synthase from Bacillus anthracis (Bacillus anthracis); assay: AUC
[3] = biological target: Dihydrodipicolinate synthase from Vitis vinifera (Vitis vinifera); assay: SAXS
[4] = biological target: Dihydrodipicolinate synthase from Vitis vinifera (Vitis vinifera); assay: AUC; sedimentation velocity, 13 µM initial protein, 40,000 rpm, 30°C, absorbance at 280 nm, 2DSA Monte Carlo analysis; without and with saturating (5 mM) pyruvate
[5] = biological target: Dihydrodipicolinate synthase from Vitis vinifera (Vitis vinifera); assay: crystal structure; Vv-DHDPS in complex with pyruvate, 2.2 Å, space group P1, eight monomers (two tetramers) in the asymmetric unit

| stoichiometry N [3] | stoichiometry N [4] | stoichiometry N [5] | Substance | stoichiometry N [1] | stoichiometry N [2] |
| --- | --- | --- | --- | --- | --- |
|  |  |  | Dihydrodipicolinate synthase from Bacillus anthracis (enzyme) | 4 | 4 |
| 4 | 4 | 4 | Dihydrodipicolinate synthase from Vitis vinifera (enzyme) |  |  |
